Molecular target: recombinant human CFD mutant 1 (R157A, R207A), His-tagged (human) (UniProt P00746)
Test: ELISA

Chain of recombinant human CFD mutant 1 (R157A, R207A), His-tagged (human) (P00746 26-253 R182A/R232A limits assumed): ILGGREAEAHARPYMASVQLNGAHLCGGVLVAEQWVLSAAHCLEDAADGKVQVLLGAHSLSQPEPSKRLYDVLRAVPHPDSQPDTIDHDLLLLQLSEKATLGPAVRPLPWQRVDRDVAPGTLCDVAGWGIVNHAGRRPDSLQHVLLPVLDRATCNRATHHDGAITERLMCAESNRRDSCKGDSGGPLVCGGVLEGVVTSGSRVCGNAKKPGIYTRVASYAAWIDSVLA

- Mut1 Binding (% wt): 13.6 % wt
B1: KCD119 (antibody, V domains shown)
VH: EVQLQQSGPELVKPGASVKISCKASGYTFTDYYTNWMRQRHGESLEWIGDINPNTGDTSYNQKFRVKATLTVDKSSGTAYMGLRSLTSEDSAVYYCTREGPSFAYWGQGTLVTVSA
VL: DVLMTQTPLSLPVSLGDQASISCRSSQTIVHSNGDTYLEWYLQKPGQSPNLLIYKVSNRFSGVPDRFSGSGSGTDFTLKISRVEAEDLGVYYCFQGSHVPPTFGGGTTLEIK
